Tests used:
[1] = substrate: CC(=O)SCCNC(=O)CCNC(=O)[C@H](O)C(C)(C)COP(=O)(O)OP(=O)(O)OC[C@H]1O[C@@H](n2cnc3c(N)ncnc32)[C@H](O)[C@@H]1OP(=O)(O)O; assay: purified protein; format: biochemical, Saccharopolyspora erythraea; conditions: 3 mM ATP, 5 mM MgCl2, 50 mM NaH14CO3, 100 mM Hepes pH 7.5, 30 °C
[2] = substrate: CCC(=O)SCCNC(=O)CCNC(=O)[C@H](O)C(C)(C)COP(=O)(O)OP(=O)(O)OC[C@H]1O[C@@H](n2cnc3c(N)ncnc32)[C@H](O)[C@@H]1OP(=O)(O)O; assay: purified protein; format: biochemical, Saccharopolyspora erythraea; conditions: 3 mM ATP, 5 mM MgCl2, 50 mM NaH14CO3, 100 mM Hepes pH 7.5, 30 °C
[3] = biological target: the molecule itself; assay: SEC; Superdex 200 10/300 GL in 50 mM Hepes pH 7.5, 150 mM NaCl, 20% glycerol; calibrated with molecular mass standards; two peaks, dimer (404 kDa) and monomer (186.9 kDa)

Protein	Km [1] [µM]	Vmax [1] [µmol/min]	kcat [1] [s⁻¹]	kcat/Km [1] [M⁻¹ s⁻¹]	Km [2] [µM]	Vmax [2] [µmol/min]	kcat [2] [s⁻¹]	kcat/Km [2] [M⁻¹ s⁻¹]	stoichiometry N [3]
SACE_4237 (Saccharopolyspora erythraea NRRL 2338) (protein, full-length gene, N-terminal His6 tag, E. coli BL21λ(DE3) with pCY216 (biotin ligase)) MFSRVAIVNRGEAAMRLVHAVRELAAETGERIETVALHTDVDRTATFVREADLRYDLGPASARPYLDLGVLERALVESGADAAWVGWGFVAEDPAFAELCEKIGVTFIGPSAEAMRRLGDKIGAKLLAEEVGVPVAPWSRGEVSDLDGARRAADEIGYPLMLKATAGGGGRGIRVINSEQELTEAYERTRMEAERAFGNGAVFLERLVTGARHVEVQVIADGQGTAWALGVRDCSVQRRNQKIIEESASPVLTAEQSRELKAAAERLARAVEYRGAGTVEFLYHPGEELFAFLEVNTRLQVEHPITEATTGVDLVKAQLHVASGGRLEGEPPAELGHAVEARLNAEDPDRDFAPSPGRIVRLSLPAGPGIRVDTGVSEGDTIPADFDSMIAKIIAYGSDREQALGRLRRAMAQTTVIVAGGATNKSFVLDLLNRDEVVDGSADTGWIDRERAAGGLRSHQHSAIALAAAAVEAYEDAELAARQQFLSTAHGGRPQVRHETGRPLELKLRDESYRVLVARVGHQRYRIGIDTGSQQHTADVEIERFDSHTGQITVNGQRFRLVTDTHGPVHLVEVDGVTHRVSQDEGGVLRSPAPALVVATPVEIGEEVEAGAPVLVLESMKMETVLRAPFRARLRERMVAAGSQIETGAPLLRLEPVGDQEAAEEAEAATPVELALPVAPSARDAHERAARGLQDLRSVLLGFDVDPHDEQRVLDDYLAARAELVAAGQRPLDGEIELLQVFADLSELSRNRPAGEEAKADTRVHSPREYFHTYLQSLDVERAGLSETFQQRLLRVLGHYGVEGADRTPELEEAVFRIFLAQQRAASDAAVVTTLLGHWLTEVPPPGETRTAAGLVLEHLVAATQLRFPVVCDLARTVVFHWFAQPMLRRNRAEVYSVVRGHLRHLDAHPDAHDRAERIAEMVGTAEPLVRLLGQRIGREGTDPAPLLEVLTRRYYGNRALDGVRTTRVAGSTAVVAEYQDEHPRVVATAVDFAALPEAVRAIGELAADGDLVADIYLTWADQPEDSDAMAAELGEVLGAQGLPGQVGRITTTVAGRSGAVMHHHFTFEPASEGVAEQRLIRGLHPLIAERLQLRRWRDFDLTRLPSADEEVYLFRSVARENPSDERFVAMAQVRDLTPLRDDEGRLVALPAAEGVLTGCLDAIRKVQARVPARQRSSTNRIVIYVWPPVELTSEELRALGRRVLPTTAGAGLEEVLFLGRRRDRETGELREVAVRVGYEAGSEPRMSVGEPPTERIEPLNSYRQKVLRAAKRGTVYPYELTGMLAGGQGTFVEHDLDADGVLVPVDRPKGQNSAAIVAGVVTTPTERHPEGVTRVVLLGDPTKSLGALSEPECSRVIAALDLAERMRVPLEWFALSAGARISMDSGTENMDWVAAALKRIVHFTQDGGEINVVVAGINVGAQPYWNAEATMLMHTKGILVMTPDSAMVLTGKQSLDFSGGVSADDNFGIGGYDRVMGPNGQAQYWAPNLAAAREVLMSHYDHTYVVPGEEAPRQAATTDPRDRDICDYPHEFAGSDFTTVGEIFSATANPDRKKSFDIRTVMRALADQDHPVLERWAGMADADTAAVQDVHLGGHPVCLLGIESRPVPRHGFPPTDGPDTYTAGTLFPRSSKKAARAINAASGNRPLVVLANLSGFDGSPESMRKLQLEYGAEIGRAIVNFRGPIVFCVISRYHGGAFVVFSKALNPNMTVLAVEGSYASVIGGAPAAAVVFSGEVNDRTAKDQRVRDLEARLAEAGDADRTALTLELAETRRAVHAEKLGEVAAEFDRVHSVQRAVEVGSVDAIVRADELRPQIIEAIEKGMLPQ	168 ± 1	0.00043	0.143 ± 0.004	850 ± 30	98 ± 1	0.00016	0.052 ± 0.002	520 ± 40	
SACE_4237 multidomain acyl-CoA carboxylase (enzyme, Saccharopolyspora erythraea, UniProt A4FHI1 1-1827, looked up, biotinylated (co-expressed biotin ligase from pCY216 to improve biotinylation; residue not stated), SACE_4237, multidomain acyl-CoA carboxylase (BC, BCCP, central region, CT) of Saccharopolyspora erythraea NRRL23338, about 200 kDa; gene amplified from chromosomal DNA with an NdeI site at the translational start codon and a SpeI site downstream of the stop codon; Eluted from size exclusion as a dimer (peak 1, 404 kDa) and a monomer (peak 2, 186.9 kDa); The row is of the protomer with itself; …) MFSRVAIVNRGEAAMRLVHAVRELAAETGERIETVALHTDVDRTATFVREADLRYDLGPASARPYLDLGVLERALVESGADAAWVGWGFVAEDPAFAELCEKIGVTFIGPSAEAMRRLGDKIGAKLLAEEVGVPVAPWSRGEVSDLDGARRAADEIGYPLMLKATAGGGGRGIRVINSEQELTEAYERTRMEAERAFGNGAVFLERLVTGARHVEVQVIADGQGTAWALGVRDCSVQRRNQKIIEESASPVLTAEQSRELKAAAERLARAVEYRGAGTVEFLYHPGEELFAFLEVNTRLQVEHPITEATTGVDLVKAQLHVASGGRLEGEPPAELGHAVEARLNAEDPDRDFAPSPGRIVRLSLPAGPGIRVDTGVSEGDTIPADFDSMIAKIIAYGSDREQALGRLRRAMAQTTVIVAGGATNKSFVLDLLNRDEVVDGSADTGWIDRERAAGGLRSHQHSAIALAAAAVEAYEDAELAARQQFLSTAHGGRPQVRHETGRPLELKLRDESYRVLVARVGHQRYRIGIDTGSQQHTADVEIERFDSHTGQITVNGQRFRLVTDTHGPVHLVEVDGVTHRVSQDEGGVLRSPAPALVVATPVEIGEEVEAGAPVLVLESMKMETVLRAPFRARLRERMVAAGSQIETGAPLLRLEPVGDQEAAEEAEAATPVELALPVAPSARDAHERAARGLQDLRSVLLGFDVDPHDEQRVLDDYLAARAELVAAGQRPLDGEIELLQVFADLSELSRNRPAGEEAKADTRVHSPREYFHTYLQSLDVERAGLSETFQQRLLRVLGHYGVEGADRTPELEEAVFRIFLAQQRAASDAAVVTTLLGHWLTEVPPPGETRTAAGLVLEHLVAATQLRFPVVCDLARTVVFHWFAQPMLRRNRAEVYSVVRGHLRHLDAHPDAHDRAERIAEMVGTAEPLVRLLGQRIGREGTDPAPLLEVLTRRYYGNRALDGVRTTRVAGSTAVVAEYQDEHPRVVATAVDFAALPEAVRAIGELAADGDLVADIYLTWADQPEDSDAMAAELGEVLGAQGLPGQVGRITTTVAGRSGAVMHHHFTFEPASEGVAEQRLIRGLHPLIAERLQLRRWRDFDLTRLPSADEEVYLFRSVARENPSDERFVAMAQVRDLTPLRDDEGRLVALPAAEGVLTGCLDAIRKVQARVPARQRSSTNRIVIYVWPPVELTSEELRALGRRVLPTTAGAGLEEVLFLGRRRDRETGELREVAVRVGYEAGSEPRMSVGEPPTERIEPLNSYRQKVLRAAKRGTVYPYELTGMLAGGQGTFVEHDLDADGVLVPVDRPKGQNSAAIVAGVVTTPTERHPEGVTRVVLLGDPTKSLGALSEPECSRVIAALDLAERMRVPLEWFALSAGARISMDSGTENMDWVAAALKRIVHFTQDGGEINVVVAGINVGAQPYWNAEATMLMHTKGILVMTPDSAMVLTGKQSLDFSGGVSADDNFGIGGYDRVMGPNGQAQYWAPNLAAAREVLMSHYDHTYVVPGEEAPRQAATTDPRDRDICDYPHEFAGSDFTTVGEIFSATANPDRKKSFDIRTVMRALADQDHPVLERWAGMADADTAAVQDVHLGGHPVCLLGIESRPVPRHGFPPTDGPDTYTAGTLFPRSSKKAARAINAASGNRPLVVLANLSGFDGSPESMRKLQLEYGAEIGRAIVNFRGPIVFCVISRYHGGAFVVFSKALNPNMTVLAVEGSYASVIGGAPAAAVVFSGEVNDRTAKDQRVRDLEARLAEAGDADRTALTLELAETRRAVHAEKLGEVAAEFDRVHSVQRAVEVGSVDAIVRADELRPQIIEAIEKGMLPQ									2

— publication PMC6491548, “A novel multidomain acyl-CoA carboxylase in Saccharopolyspora erythraea provides malonyl-CoA for de novo fatty acid biosynthesis” (Scientific Reports, 2019)
